From paper PMC11856660 (PLOS Pathogens, 2025)

Molecular target: HCoV-229E nsp15 protein, H250A mutant (recombinant, hexameric) (human coronavirus 229E (HCoV-229E))
Experiment: […] (25 mM HEPES pH 8, 300 mM NaCl, 10% glycerol, 1 mM TCEP); […]; 20 °C; […]

**Q.** How did the percent hexameric turn out when “HCoV-229E nsp15 protein, H250A mutant (recombinant, hexameric) (enzyme)” was run?
**A.** Its percent hexameric is over 98%.

**Q.** What about the stoichiometry N of the same substance?
**A.** The stoichiometry N was 6.
